Target: T1, FLAG-PKD1 (protein kinase D1) (UniProt Q15139 1-912)
T1 sequence (looked up): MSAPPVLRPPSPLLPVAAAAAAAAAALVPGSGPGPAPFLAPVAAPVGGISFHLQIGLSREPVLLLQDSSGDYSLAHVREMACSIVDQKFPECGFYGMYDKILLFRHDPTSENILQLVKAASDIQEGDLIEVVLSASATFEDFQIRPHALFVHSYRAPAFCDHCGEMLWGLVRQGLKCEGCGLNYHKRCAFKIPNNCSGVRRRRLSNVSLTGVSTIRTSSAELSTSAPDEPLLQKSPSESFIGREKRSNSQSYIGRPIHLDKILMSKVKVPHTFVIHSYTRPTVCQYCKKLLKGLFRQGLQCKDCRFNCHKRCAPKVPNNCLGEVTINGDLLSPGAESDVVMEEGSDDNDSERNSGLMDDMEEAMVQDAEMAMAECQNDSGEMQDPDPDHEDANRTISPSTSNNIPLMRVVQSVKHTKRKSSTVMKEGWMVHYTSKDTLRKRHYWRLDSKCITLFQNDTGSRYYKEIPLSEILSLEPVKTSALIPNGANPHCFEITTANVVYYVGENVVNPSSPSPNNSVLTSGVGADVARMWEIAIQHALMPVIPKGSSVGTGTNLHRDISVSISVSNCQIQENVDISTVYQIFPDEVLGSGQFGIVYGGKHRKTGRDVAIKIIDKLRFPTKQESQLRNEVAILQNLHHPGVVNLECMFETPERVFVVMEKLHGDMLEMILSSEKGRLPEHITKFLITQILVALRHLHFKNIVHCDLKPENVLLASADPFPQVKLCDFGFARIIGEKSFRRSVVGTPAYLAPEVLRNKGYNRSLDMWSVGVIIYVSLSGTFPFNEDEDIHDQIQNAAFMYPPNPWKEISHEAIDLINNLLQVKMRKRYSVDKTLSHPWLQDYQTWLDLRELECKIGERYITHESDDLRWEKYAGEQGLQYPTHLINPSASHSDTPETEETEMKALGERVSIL
Test: pull-down

B1: GST-CBX8 (natural protein, UniProt Q9HC52 1-389, looked up)
chain: MELSAVGERVFAAEALLKRRIRKGRMEYLVKWKGWSQKYSTWEPEENILDARLLAAFEEREREMELYGPKKRGPKPKTFLLKAQAKAKAKTYEFRSDSARGIRIPYPGRSPQDLASTSRAREGLRNMGLSPPASSTSTSSTCRAEAPRDRDRDRDRDRERDRERERERERERERERERERGTSRVDDKPSSPGDSSKKRGPKPRKELPDPSQRPLGEPSAGLGEYLKGRKLDDTPSGAGKFPAGHSVIQLARRQDSDLVQCGVTSPSSAEATGKLAVDTFPARVIKHRAAFLEAKGQGALDPNGTRVRHGSGPPSSGGGLYRDMGAQGGRPSLIARIPVARILGDPEEESWSPSLTNLEKVVVTDVTSNFLTVTIKESNTDQGFFKEKR
- binding result: binds

Reference: paper doi:10.1101/2020.08.09.242891 (bioRxiv, 2020)
